Assay results reported in PMC7884425.

Legend:
[1] = target: full-length human PARP1 (activated by DNA) (human), P09874; test: ITC; in the presence of DNA; conditions: natural protein; chains chain; remark: other sources report otherwise
[2] = target: full-length human PARP1 (activated by DNA) (human), P09874; test: ITC; HPF1 in the syringe; full-length PARP1 0.02 mM pre-incubated with 0.06 mM DNA hairpin at 4 °C for at least 60 min, in the cell; 25 °C; 20 mM Tris-pH 8.0, 150 mM NaCl, 1 mM TCEP, 1 mM MgCl2; conditions: remark: other sources report otherwise

Chain of full-length human PARP1 (activated by DNA) (human), P09874 (P09874 whole entry): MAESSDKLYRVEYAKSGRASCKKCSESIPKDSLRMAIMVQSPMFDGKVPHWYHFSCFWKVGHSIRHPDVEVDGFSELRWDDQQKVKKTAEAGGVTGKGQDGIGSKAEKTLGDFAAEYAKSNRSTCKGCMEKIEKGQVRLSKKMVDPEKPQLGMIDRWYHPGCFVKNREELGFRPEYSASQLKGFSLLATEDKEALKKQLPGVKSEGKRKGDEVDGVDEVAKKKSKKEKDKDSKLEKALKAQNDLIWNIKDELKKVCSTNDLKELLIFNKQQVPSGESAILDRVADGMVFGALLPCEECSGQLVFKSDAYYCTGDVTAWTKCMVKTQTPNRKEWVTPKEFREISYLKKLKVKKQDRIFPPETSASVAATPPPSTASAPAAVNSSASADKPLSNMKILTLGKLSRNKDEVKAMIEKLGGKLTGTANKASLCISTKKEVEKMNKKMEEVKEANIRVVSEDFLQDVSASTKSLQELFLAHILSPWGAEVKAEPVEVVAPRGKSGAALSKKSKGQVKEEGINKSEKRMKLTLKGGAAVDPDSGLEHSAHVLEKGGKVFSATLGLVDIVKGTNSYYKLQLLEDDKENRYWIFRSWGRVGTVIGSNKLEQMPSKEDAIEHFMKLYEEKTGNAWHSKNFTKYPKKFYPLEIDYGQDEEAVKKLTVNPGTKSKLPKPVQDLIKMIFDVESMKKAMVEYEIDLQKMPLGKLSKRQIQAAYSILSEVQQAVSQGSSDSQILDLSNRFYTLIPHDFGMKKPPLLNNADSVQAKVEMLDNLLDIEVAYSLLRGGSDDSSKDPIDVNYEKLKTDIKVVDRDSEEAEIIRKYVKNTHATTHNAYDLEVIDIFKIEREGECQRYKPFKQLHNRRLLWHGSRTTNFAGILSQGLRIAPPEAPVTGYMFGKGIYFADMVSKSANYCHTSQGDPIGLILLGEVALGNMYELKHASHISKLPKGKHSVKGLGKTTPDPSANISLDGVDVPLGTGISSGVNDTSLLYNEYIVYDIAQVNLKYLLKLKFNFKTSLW

B1: human HPF1 (histone PARylation factor 1), wild-type, Q9NWY4 1-346 (natural protein)
chain: MVGGGGKRRPGGEGPQCEKTTDVKKSKFCEADVSSDLRKEVENHYKLSLPEDFYHFWKFCEELDPEKPSDSLSASLGLQLVGPYDILAGKHKTKKKSTGLNFNLHWRFYYDPPEFQTIIIGDNKTQYHMGYFRDSPDEFPVYVGINEAKKNCIIVPNGDNVFAAVKLFLTKKLREITDKKKINLLKNIDEKLTEAARELGYSLEQRTVKMKQRDKKVVTKTFHGAGLVVPVDKNDVGYRELPETDADLKRICKTIVEAASDEERLKAFAPIQEMMTFVQFANDECDYGMGLELGMDLFCYGSHYFHKVAGQLLPLAYNLLKRNLFAEIIEEHLANRSQENIDQLAA
Ka [1]: 330000 M⁻¹ | Kd [2]: 2.8 µM
